Assay in all cases: BLI
Holding throughout (details): both partners purified

The target in assay [1] is T1, FMDV O1/Manisa/TUR/69 virus-like particle, VP2 93C stabilised (Foot-and-mouth disease virus …, UniProt Q6PMW3, stabilised).
T1 construct: copies: 60 + 60 + 60 + 60

The target in assay [2] is T2, FMDV A22/IRQ/24/64 virus-like particle, VP2 93C stabilised (FMDV serotype A, A22/IRQ/24/64, stabilised).
T2 construct: copies: 60 + 60 + 60 + 60

Assay [3] concerns the target T1, FMDV O1/Manisa/TUR/69 virus-like …. The source holds these as a separate data set.
In assay [4] the target is T2, FMDV A22/IRQ/24/64 virus-like particle, …. This is another data set of the same source.

Here are results for six molecules from article PMC13216289 (NPJ Vaccines, 2026).

B1: Ab34, recombinant cattle IgG1/lambda antibody (antibody, V domains shown)
VH: QVQLRESGPSLVKPSQTLSLTCTVSGFSLTDVHVGWVRQTPGKALEWVGVICNRGAIGYNPALESRLSITEDNSKSQVSLSLSSVTTADTATYYCASSCRTEGDVGGDCDSDHFFCAWGQGLLVTVSS
VL: SYELTQPTSVSVALGQTAKITCSGDLLDRQYAQWYQQKPGQGPVRVIYKDSERPSGISDRFSGSSSGKTATLTVSGAQTEDEADYYCHSADSSHYPVFGSGSTLTVL
notes: copies: 2 + 2
With B1, the dissociation constant (Kd) in assay [1] was determined as 0.00904 nM; in assay [2] it was 0.0093 nM.

B2: Fab34, recombinant cattle Fab of Ab34 (Fab, V domains shown)
VH: QVQLRESGPSLVKPSQTLSLTCTVSGFSLTDVHVGWVRQTPGKALEWVGVICNRGAIGYNPALESRLSITEDNSKSQVSLSLSSVTTADTATYYCASSCRTEGDVGGDCDSDHFFCAWGQGLLVTVSS
VL: SYELTQPTSVSVALGQTAKITCSGDLLDRQYAQWYQQKPGQGPVRVIYKDSERPSGISDRFSGSSSGKTATLTVSGAQTEDEADYYCHSADSSHYPVFGSGSTLTVL
For B2, the Kd stood at 12.3 nM in assay [3] and 9.9 nM in assay [4].

B3: Ab17, recombinant cattle IgG1/lambda antibody (antibody, V domains shown)
VH: QVQLRESGPSSLKPSQTLSLTCAVSGFSLSTYAVGWVRQAPGKALEWVGDITSSGDTFYNPALKSRFSITKDNSKNQVSLSVGSVTPEDTATFYCTRLTCGDDCSTAWHNFDAWGQGLLVTVSS
VL: SYELTQPTSVSVALGQTAKITCSGDLLDVQYTQWYQQKPGQGPVRVIYKDSERPSGISDRFSGSSSGKTATLIISGAQTEDEADYYCQSTDSSQYGIFGRGTTLTVL
notes: copies: 2 + 2
In assay [1], B3 showed a Kd of 0.021 nM, a koff of 7.96e-06 s⁻¹ and a kon of 303000 M⁻¹ s⁻¹. For the same molecule, in assay [2], binding was characterised by a dissociation constant (Kd) of 0.246 nM, the koff came to 0.000164 s⁻¹ and the kon came to 685000 M⁻¹ s⁻¹.

B4: Fab49, recombinant cattle Fab of Ab49 (Fab, V domains shown)
VH: QVQLRESGPSLVKPSQTLSLTCTVSGFSLTNYAVGWVRQAPGKAIQSLSIISTTGDTYYNPALKSRLSITKDNSKSQVSLSVSSVAPEDTATYYCVKFCGNADSAGHGWGCDYGDNENWGQGLLVTVSS
VL: SYELTQPTSVSVALGQTAKITCSGDLLDEQYTQWYQQKPGQGPVRVIYKDSERPSGISDRFSGSSSGKTATLTISGAQTEDEADYYCQSFYSSTDPVFGSGTTLTVL
In the case of B4, in assay [3], binding was put at a Kd of 6.37 nM, the koff came out at 0.0029 s⁻¹ and the kon stood at 553000 M⁻¹ s⁻¹. In assay [4], this molecule came in with a Kd of 4.44 nM, a koff of 0.00349 s⁻¹ and an on-rate constant (kon) of 749000 M⁻¹ s⁻¹.

B5: Ab49, recombinant cattle IgG1/lambda antibody (antibody, V domains shown)
VH: QVQLRESGPSLVKPSQTLSLTCTVSGFSLTNYAVGWVRQAPGKAIQSLSIISTTGDTYYNPALKSRLSITKDNSKSQVSLSVSSVAPEDTATYYCVKFCGNADSAGHGWGCDYGDNENWGQGLLVTVSS
VL: SYELTQPTSVSVALGQTAKITCSGDLLDEQYTQWYQQKPGQGPVRVIYKDSERPSGISDRFSGSSSGKTATLTISGAQTEDEADYYCQSFYSSTDPVFGSGTTLTVL
notes: copies: 2 + 2
B5: in assay [1], binding was characterised by a dissociation constant (Kd) of 0.156 nM, the koff was found to be 4.9e-05 s⁻¹ and the kon worked out at 257000 M⁻¹ s⁻¹. In assay [2], the Kd turned out to be 0.114 nM, the koff amounted to 3.61e-05 s⁻¹ and the kon worked out at 389000 M⁻¹ s⁻¹.

B6: Fab17, recombinant cattle Fab of Ab17 (Fab, V domains shown)
VH: QVQLRESGPSSLKPSQTLSLTCAVSGFSLSTYAVGWVRQAPGKALEWVGDITSSGDTFYNPALKSRFSITKDNSKNQVSLSVGSVTPEDTATFYCTRLTCGDDCSTAWHNFDAWGQGLLVTVSS
VL: SYELTQPTSVSVALGQTAKITCSGDLLDVQYTQWYQQKPGQGPVRVIYKDSERPSGISDRFSGSSSGKTATLIISGAQTEDEADYYCQSTDSSQYGIFGRGTTLTVL
In assay [3], B6 gave a Kd of 5.93 nM, a koff of 0.0117 s⁻¹ and a kon of 1.19e+06 M⁻¹ s⁻¹. Also, in assay [4], the Kd is 19.6 nM, the koff stood at 0.0298 s⁻¹ and the kon amounted to 1.52e+06 M⁻¹ s⁻¹.
